Experimental data from patent US20130273046A1 (UNIVERSITE DE LAUSANNE, published 2013).

Assays:
mouse EDAR-Fc = biological target: T1, mouse EDAR-Fc (mouse); experiment: ELISA on mouse EDAR-Fc (FIG. 9)
T1 construct: also called mouse EDAR (1-183)-Fc; soluble mouse EDAR-Fc fusion protein
Text: FIG. 9. Epitope mapping of anti-EDAR monoclonal antibodies on recombinant human EDAR by ELISA. (A) Schematic linear representation of human EDAR showing the position of cystein residues (thin horizontal lines), of the putative N-linked glycosylation site (thick horizontal line, N), of the six structural modules (rectangles with rounded corners) composing the three cystein-rich domains (CRD1, CRD2, CRD3), of the transmembrane domain (rectangle, TMD), of the signal peptide (Leader), of the stalk and of the intracellular domain (ID). Amino acid numbers at the junctions of interest are indicated. The arrow indicates the predicted cleavage site of the signal peptide. The scheme is drawn to scale, except for the intracellular domain. (B) Wells of ELISA plates were coated with goat anti-human IgG antibody, blocked, and further incubated with human EDAR-Fc, mouse EDAR-Fc or the indicated human EDAR-Fc truncation proteins in cell supernatants of transfected cells. […] Binding of mAbEDARs were monitored with horseradish peroxydase-coupled anti-mouse IgG antibody.
In order to obtain antibodies recognizing both human and mouse EDAR, a feature which would considerably facilitate pre-clinical development of drug candidates, EDAR-deficient mice were immunized with human EDAR. It was then assessed whether monoclonal antibodies generated from these mice indeed recognized EDAR from these two animal species. […]

human Fas-Fc [1] = biological target: T2, human Fas-Fc (human, UniProt P25445 26-170, limits assumed); experiment: Western blot, 20 ng hFas-Fc (FIG. 7B)
T2 construct: Negative control protein; also called hFas-Fc; not shown: Fc portion
T2 sequence (looked up): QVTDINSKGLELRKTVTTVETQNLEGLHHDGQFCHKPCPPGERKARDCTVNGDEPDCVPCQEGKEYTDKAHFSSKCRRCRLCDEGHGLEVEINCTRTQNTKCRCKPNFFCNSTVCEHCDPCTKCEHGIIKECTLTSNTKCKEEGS
Text: (§1) The weaker signal obtained with mouse EDAR might be explained by the lower amount of mouse EDAR-Fc loaded on the gel. Binding specificity is established by showing that none of the mAbEDARs does bind to Fas-Fc and Flag-human APRIL (while Flag-human APRIL is recognized by an anti-APRIL mAb). […] The band recognized by mAbEDAR5 in the BSA lane is probably due to a cross-contamination of EDAR-Fc in the neighboring lane.

human EDAR-Fc = biological target: T3, human EDAR-Fc (human); experiment: Western blot, non-reducing, 20 ng human EDAR-Fc (FIG. 7B)
T3 construct: also called hEDAR-Fc; human EDAR (1-183)-Fc
Text: as §1

[2] = biological target: T4, human EDAR domain I alone fused to Fc of human IgG1 (human, UniProt Q9UNE0 27-72); experiment: capture ELISA on EDAR-Fc truncation proteins
T4 construct: also called CRD1 EDAR-Fc truncation protein; not shown: Fc region of human IgG1
T4 chain: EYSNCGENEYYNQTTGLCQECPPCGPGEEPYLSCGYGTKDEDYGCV
Text: (§2) Epitope mapping of anti-EDAR monoclonal antibodies on recombinant human EDAR by ELISA. (A) Schematic linear representation of human EDAR showing the position of cystein residues (thin horizontal lines), of the putative N-linked glycosylation site (thick horizontal line, N), of the six structural modules (rectangles with rounded corners) composing the three cystein-rich domains (CRD1, CRD2, CRD3), of the transmembrane domain (rectangle, TMD), of the signal peptide (Leader), of the stalk and of the intracellular domain (ID). Amino acid numbers at the junctions of interest are indicated. The arrow indicates the predicted cleavage site of the signal peptide. The scheme is drawn to scale, except for the intracellular domain. (B) Wells of ELISA plates were coated with goat anti-human IgG antibody, blocked, and further incubated with human EDAR-Fc, mouse EDAR-Fc or the indicated human EDAR-Fc truncation proteins in cell supernatants of transfected cells. One well was also left without cell supernatant (Ctrl). The efficient capture of the various EDAR-Fc proteins was controlled using horseradish peroxydase-coupled donkey anti-human IgG antibody. Binding of mAbEDARs were monitored with horseradish peroxydase-coupled anti-mouse IgG antibody.
(§3) EDAR is a transmembrane protein whose extracellular part is composed of three membrane distal cystein-rich domains (CRDs) and of a proximal membrane stalk domain (FIG. 9A). Constructs coding for the entire EDAR protein, domains I and II, domains II and III, domain III and the stalk domain, domains I, II and III alone and the stalk domain alone were assembled with the Fc region of human IgG1, inserted into a mammalian expression vector and transiently transfected in 293T cells. […] The other fragments were not recognized, in particular the fragments made up of either domain I or II alone. mAbEDAR5, 6, 12 and 13 specifically recognized domain I, alone or together with domain II. mAbEDAR9, 14 and 15 only recognized Fc constructs containing the entire EDAR extracellular domain.

[3] = biological target: T5, human EDAR domains I and II fused to Fc of human IgG1 (human, UniProt Q9UNE0 27-114); experiment: capture ELISA on EDAR-Fc truncation proteins
T5 construct: Tested as supernatant of transfected 293T cells; also called CRD1 and CRD2 EDAR-Fc truncation protein; fragment made up of domains I and II; not shown: Fc region of human IgG1
T5 sequence: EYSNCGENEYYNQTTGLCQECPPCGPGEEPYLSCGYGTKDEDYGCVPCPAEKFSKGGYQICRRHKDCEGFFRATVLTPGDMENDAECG
Text: as §2, §3

[4] = biological target: EDAR-Fas fusion protein on Fas-deficient Jurkat cells (human or mouse EDAR not told apart) (human, UniProt P25445 169-335); experiment: cell-based or functional assay
[5] = biological target: T6, hEDAR-Fas on Fas-deficient Jurkat cells (human, UniProt P25445 169-335, limits assumed); experiment: cell-based or functional assay
T6 sequence: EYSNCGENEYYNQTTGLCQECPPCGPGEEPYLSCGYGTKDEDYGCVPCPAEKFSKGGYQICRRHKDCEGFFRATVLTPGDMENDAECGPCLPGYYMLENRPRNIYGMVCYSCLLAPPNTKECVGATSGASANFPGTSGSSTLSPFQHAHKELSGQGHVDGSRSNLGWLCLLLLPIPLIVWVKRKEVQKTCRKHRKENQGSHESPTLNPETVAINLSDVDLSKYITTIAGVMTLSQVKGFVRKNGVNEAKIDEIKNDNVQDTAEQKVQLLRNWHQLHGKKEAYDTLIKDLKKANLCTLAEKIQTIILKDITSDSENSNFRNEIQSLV

[6] = biological target: T7, mEDAR-Fas on Fas-deficient Jurkat cells (mouse; human, UniProt P25445 169-335, limits assumed); experiment: cell-based or functional assay
T7 sequence: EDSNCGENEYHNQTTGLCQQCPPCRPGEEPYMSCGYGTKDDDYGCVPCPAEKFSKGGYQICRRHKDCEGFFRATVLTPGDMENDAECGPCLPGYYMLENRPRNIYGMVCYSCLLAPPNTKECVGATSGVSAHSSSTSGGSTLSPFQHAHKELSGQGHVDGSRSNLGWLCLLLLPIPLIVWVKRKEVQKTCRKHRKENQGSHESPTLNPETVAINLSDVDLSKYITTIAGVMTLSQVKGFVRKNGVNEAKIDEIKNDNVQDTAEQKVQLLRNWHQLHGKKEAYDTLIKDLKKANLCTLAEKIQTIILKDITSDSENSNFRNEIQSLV

Flag-human APRIL = biological target: T8, Flag-human APRIL (human, UniProt O75888 110-250, limits assumed); experiment: Western blot (FIG. 7A)
T8 construct: Control antigen; not shown: Flag tag
T8 sequence (looked up): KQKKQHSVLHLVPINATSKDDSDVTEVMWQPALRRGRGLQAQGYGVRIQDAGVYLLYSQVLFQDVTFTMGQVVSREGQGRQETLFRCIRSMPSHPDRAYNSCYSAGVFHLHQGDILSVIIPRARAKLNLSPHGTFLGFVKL
Text: FIG. 7. Use of anti-EDAR mAb in Western blotting.
as §1

[7] = biological target: T4, human EDAR domain I alone fused to Fc …; experiment: capture ELISA on EDAR-Fc truncation proteins (FIG. 9)
Text: as §2, §3

[8] = biological target: T9, human EDAR stalk domain alone fused to Fc of human IgG1 (human, limits assumed); experiment: as above
T9 construct: also called stalk EDAR-Fc truncation protein; not shown: Fc region of human IgG1
T9 chain: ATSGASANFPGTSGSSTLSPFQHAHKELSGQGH
Text: as §2, §3

[9] = biological target: T10, human EDAR domain II alone fused to Fc of human IgG1 (human, UniProt Q9R187 73-114 (mouse entry), limits assumed); experiment: as above
T10 construct: also called CRD2 EDAR-Fc truncation protein; not shown: Fc region of human IgG1
T10 chain: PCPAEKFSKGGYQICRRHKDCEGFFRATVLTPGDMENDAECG
Text: as §2, §3

human Fas-Fc [10] = biological target: T2, human Fas-Fc; experiment: ELISA on coated human Fas-Fc (FIG. 6C)
Experimental: FIG. 6. Specific binding of the anti-EDAR mAb to both mouse and human EDAR. Graded concentrations of mAbEDAR1-4 or of a control mAb (Aprily 5) were added to wells of a 96-well ELISA plate coated with 100 μl of 1 μg/ml of human EDAR-Fc, mouse EDAR-Fc, human Fas-Fc or Flag-human APRIL. […] The absorbance was measured at 490 nm.
In order to obtain antibodies recognizing both human and mouse EDAR, a feature which would considerably facilitate pre-clinical development of drug candidates, EDAR-deficient mice were immunized with human EDAR. It was then assessed whether monoclonal antibodies generated from these mice indeed recognized EDAR from these two animal species. The wells of microtiter plates were coated with soluble human and mouse EDAR-Fc fusion protein and a negative control protein (human Fas-Fc), blocked and probed with serial dilutions of anti-EDAR monoclonal antibody (mAb) mAbEDAR1, 2, 3 and 4 and a negative control mAb (Aprily 5) (FIG. 6), or with a single dose of mAbEDAR1 to 15 (FIG. 9).

| binding result (mouse EDAR-Fc) | binding result (human Fas-Fc [1]) | binding result (human EDAR-Fc) | binding result [2] | binding result [3] | binding result (Flag-human APRIL) | binding result [7] | binding result [8] | binding result [9] | binding result (human Fas-Fc [10]) | Binder | EC50 (concentration of agonist inducing half maximal decrease of cell viability), EDAR-Fas Jurkat cells [4] [ng/mL] | EC50 (concentration of agonist inducing half maximal decrease of cell viability), hEDAR-Fas Jurkat cells [5] [ng/mL] | EC50 (concentration of agonist inducing half maximal decrease of cell viability), mEDAR-Fas Jurkat cells [6] [ng/mL] |
| --- | --- | --- | --- | --- | --- | --- | --- | --- | --- | --- | --- | --- | --- |
| binds | no binding | binds | binds | binds |  |  |  |  |  | mAbEDAR5 (antibody, IgG2b, V domains shown) VH: QVQLKQSGPGLVQPSQSLSITCTVSGFSLSNYGVHWIRQSPGKGLEWLGVIWGGGSTDYNAAFISRLSISKDNSKSQVFFKMNSLQADDTAIYYCASYYGYYDWFAYWGQGTLVTVSA VL: EIVLTQSPTTMAASPGEKITITCSASSIISSNYLHWYQQKPGFSPKPLIYRTSNLASGVPARFSGSGSGTSYSLTIGTMEAEDVATYYCQQGSSIPRTFGSGTKLEIKR |  |  |  |
|  |  |  |  |  |  |  |  |  |  | Fc-EDA1 (Fc fusion, UniProt Q92838 245-391, looked up, not shown: a dimerising Fc or GST) ENQPAVVHLQGQGSAIQVKNDLSGGVLNDWSRITMNPKVFKLHPRSGELEVLVDGTYFIYSQVEVYYINFTDFASYEVVVDEKPFLQCTRSIETGKTNYNTCYTAGVCLLKARQKIAVKMVHADISINMSKHTTFFGAIRLGEAPAS | 3 to 9 | ~1 | ~1 |
| binds | no binding | binds | binds | binds |  |  |  |  |  | mAbEDAR6 (antibody, IgG2a, V domains shown) VH: EVQLQQSGPELVKPGASVKMSCKASGYSFTGYNMHWVKQSHGKSLEWIGYIDPYNGATSKNQKFKGKATLTVDKSSTTAYIQLNSLTSEDSAVYYCARYYYGDYHWYFDVWGAGTTVTVSS VL: DVVMTQTPLSLPVSLGDQASISCRSSQSLVHSNGNTYLHWYLQQPGQSPKLLIYKVSNRFSGVPDRFSGSGSGTDFTLKISRVEAEDLGVYFCSQHTHVPPTFGAGTKLELKR |  |  |  |
|  |  |  |  | binds | no binding | no binding | no binding | no binding | no binding | mAbEDAR1 (antibody, IgG1, V domains shown, also called anti-EDAR mAb mAbEDAR1) VH: EVPLEESGGGLVKPGGSRKLSCAASGFTFSDHGMHWVRQAPEKGLEWIAYISSGSSNVYYSDTVKGRFTISRDNAKNTLFLQMTSLRSEDTAMYYCARRELLRFYFDVWGAGTTVTVSS VL: DIQMTQTTSSLSASLGDRVTISCRASQDIGNHLNWYQQKPDGTVKLLIYYTSRIHSGVPSRFSGSGSGTDYSLTISNLEQEDIATYFCQQGNTLPWTFGGGTKLEIKR |  |  |  |
|  | no binding |  |  | binds | no binding | no binding | no binding | no binding |  | mAbEDAR3 (antibody, IgG1, V domains shown, also called anti-EDAR mAb mAbEDAR3) VH: EVPLEESGGGLVKPGGSRKLSCAASGFTFSDYGMHWVRQAPEKGLEWVAYISSGSSAIYYADTVKGRFTISRDNAKSTLFLQMTSLRSEDTAMYYCARREILRYYFDVWGAGTTVTVSS VL: DIQMTQSTSSLSASLGDRVTISCRASQDISNNLNWYQQRPDGTVKLLIYYTSRSQSGVPSRFSGSGSGTDYSLTISNLEQEDVATYFCHQGKTLPYTFGGGTKLEIKR |  |  |  |
